The values that follow come from patent publication US20230212320A1.

Test [1] deals with Fc2 of PTC039 (IgG1 Fc chain with L351G, T366S, L368A, Y407V) (Homo sapiens (Human)) [IgG part: P0DOX5]. In words: SE-HPLC, PTC040 co-expression.
For test [2] the target is unchanged. In words: SE-HPLC, PTC074 co-expression.

In the case of “Fc2 of PTC039 (IgG1 Fc chain with L351G, T366S, L368A, Y407V) (from UniProt P0DOX5 218-449)”, the Fc-2-2 homo-dimer (%) came to 1.5% in test [1] and 0.96% in test [2].
